Experimental data reported in paper PMC2788227 (PLoS ONE, 2009).

Target: the molecule itself
Test: SEC

B1: Francisella tularensis subsp. holarctica LVS 1-deoxy-D-xylulose 5-phosphate reductoisomerase (MEP sy (enzyme)
chain: MFKKTKITILGATGSIGDSTLAVIRETNDFEVFALTAFSNVEKLAELCQEFKPKFAVVPDLSKKQKLQSLVTDVEVLVGESGLEKVSSLAEIDIVMSAIVGIAGLKPTFAAAKAGKKILLANKESLVTAGHLLIDEVVKNNAQLIPVDSEHNAIFQCIDNHDKKCLPEIDKIILTASGGPFRDKQLHELTDVTPEQACNHPNWQMGRKISVDSSTMVNKALEVIEAYWLFSVSADKIGVLIHPQSVTHSIVRYVDGSYIAQLGVPDMKTPIANAMYYPKRGSVNVESLDFTKYQLTFREACFERFEALKIVFNNLQNKNYAANIVFNAANEELVAAFLNKKIKYLEIIEVNKKVTKELNFENPKNIEEVFEIDRKTREYVDSVLG
stoichiometry N: 2
